The values below come from patent US10239925B2, “Peptides and combination of peptides for use in immunotherapy against ovarian cancer and other cancers” (IMMATICS BIOTECHNOLOGIES GMBH, priority 2015, dated 2019).

This assay deals with HLA-A*02:01 (Homo sapiens, UniProt P04439, D140Y/D185E/D98H/E176V/E277Q/G131W/G231S/I119V/I121R/I166T/I218V/L300P/L318F/N151K/N90K/P208A/P217A/Q86G/Q94H/R138H/R169H/T345S). As to the kind of experiment: MHC binding assay (UV-ligand exchange, anti-β2m ELISA, peptide exchange yield). Conditions: binding to HLA-A*02:01. An outline of the steps: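 Peptide-MHC complexes formed by UV-ligand exchange, cleaving a UV-sensitive placeholder peptide in favour of the test peptide. Exchange yield measured by ELISA: monomers diluted 100-fold onto streptavidin-coated plates, 1 h 37 °C, detected with 2 ug/ml HRP anti-β2m and TMB, absorbance at 450 nm.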
On the technique in general: In an ELISA, binding on a coated surface is turned into a signal by an enzyme label.

For “569 (KLVDRTWTL; listed as Homo sapiens) [compound 569]”, the “Peptide exchange (MHC class I binding score, peptide exchange yield)” value (from here on “Peptide exchange”) is reported as ““+++” (>50 = +++)”.

With “570 (ALANQIPTV; listed as Homo sapiens) [compound 570]”, the “Peptide exchange” value is reported as ““++” (>20% = ++)”.

For “571 (LLLTTIPQI; listed as Homo sapiens) [compound 571]”, the “Peptide exchange” value is ““+++” (>50 = +++)”.

“572 (ALADLIEKELSV; listed as Homo sapiens) [compound 572]”: the “Peptide exchange” value is recorded as ““+++” (>50 = +++)”.

For the substance “573 (ILVANAIVGV; listed as Homo sapiens) [compound 573]”, the “Peptide exchange” value is listed as ““+++” (>50 = +++)”.

For the substance “574 (YLLQEPPRTV; listed as Homo sapiens) [compound 574]”, the “Peptide exchange” value was ““++” (>20% = ++)”.

Take “575 (YLISQVEGHQV; listed as Homo sapiens) [compound 575]”: the “Peptide exchange” value is ““+++” (>50 = +++)”.

On to “576 (ILLNNSGQIKL; listed as Homo sapiens) [compound 576]”, for which the “Peptide exchange” value is ““++++” (>75% = ++++)”.

As for “577 (VMFEDGVLMRL; listed as Homo sapiens) [compound 577]”, the “Peptide exchange” value was ““+++” (>50 = +++)”.

On to “578 (FLDPGGPMMKL; listed as Homo sapiens) [compound 578]”, for which the “Peptide exchange” value is ““+++” (>50 = +++)”.

In the case of “579 (NLMEMVAQL; listed as Homo sapiens) [compound 579]”, the “Peptide exchange” value was ““++” (>20% = ++)”.

For “580 (LLMENAERV; listed as Homo sapiens) [compound 580]”, the “Peptide exchange” value is recorded as ““++” (>20% = ++)”.

Regarding “582 (TLCDVILMV; listed as Homo sapiens) [compound 582]”, the “Peptide exchange” value is ““+++” (>50 = +++)”.

With “583 (ILANDGVLLAA; listed as Homo sapiens) [compound 583]”, the “Peptide exchange” value is on record as ““+++” (>50 = +++)”.

With “584 (ALAEVAAMENV; listed as Homo sapiens) [compound 584]”, the “Peptide exchange” value is recorded as ““+++” (>50 = +++)”.

In the case of “585 (ALWDLAADKQTL; listed as Homo sapiens) [compound 585]”, the “Peptide exchange” value was ““++++” (>75% = ++++)”.

On to “586 (KLKPGDLVGV; listed as Homo sapiens) [compound 586]”, for which the “Peptide exchange” value is ““+++” (>50 = +++)”.

As for “587 (VMNDRLYAI; listed as Homo sapiens) [compound 587]”, the “Peptide exchange” value is ““+++” (>50 = +++)”.

Regarding “588 (SLLPLSHLV; listed as Homo sapiens) [compound 588]”, the “Peptide exchange” value is reported as ““+++” (>50 = +++)”.

Turning to “589 (KLYPQLPAEI; listed as Homo sapiens) [compound 589]”, the “Peptide exchange” value is recorded as ““+++” (>50 = +++)”.

In the case of “590 (SLIEKLWQT; listed as Homo sapiens) [compound 590]”, the “Peptide exchange” value is listed as ““++” (>20% = ++)”.

As for “591 (SMAELDIKL; listed as Homo sapiens) [compound 591]”, the “Peptide exchange” value is ““+++” (>50 = +++)”.

Turning to “592 (RLLSAAENFL; listed as Homo sapiens) [compound 592]”, the “Peptide exchange” value is ““+++” (>50 = +++)”.

With “593 (GLPRFGIEMV; listed as Homo sapiens) [compound 593]”, the “Peptide exchange” value was ““+++” (>50 = +++)”.

With “594 (IMLKGDNITL; listed as Homo sapiens) [compound 594]”, the “Peptide exchange” value is ““+++” (>50 = +++)”.

Take “595 (VLLSIYPRV; listed as Homo sapiens) [compound 595]”: the “Peptide exchange” value was ““+++” (>50 = +++)”.

As to “596 (ALLDQTKTLAESAL; listed as Homo sapiens) [compound 596]”, the “Peptide exchange” value is reported as ““+++” (>50 = +++)”.

On to “597 (KLLEGQVIQL; listed as Homo sapiens) [compound 597]”, for which the “Peptide exchange” value is given as ““+++” (>50 = +++)”.

For “598 (FLFPHSVLV; listed as Homo sapiens) [compound 598]”, the “Peptide exchange” value is reported as ““+++” (>50 = +++)”.

With “599 (YLLNDASLISV; listed as Homo sapiens) [compound 599]”, the “Peptide exchange” value is reported as ““+++” (>50 = +++)”.

Take “600 (ALAAPDIVPAL; listed as Homo sapiens) [compound 600]”: the “Peptide exchange” value is ““+++” (>50 = +++)”.

“601 (SAFPFPVTV; listed as Homo sapiens) [compound 601]”: the “Peptide exchange” value is on record as ““+++” (>50 = +++)”.

In the case of “602 (YLLEQIKLIEV; listed as Homo sapiens) [compound 602]”, the “Peptide exchange” value was ““++++” (>75% = ++++)”.

With “604 (SILDRDDIFV; listed as Homo sapiens) [compound 604]”, the “Peptide exchange” value is listed as ““+++” (>50 = +++)”.

As to “605 (KLYEAVPQL; listed as Homo sapiens) [compound 605]”, the “Peptide exchange” value is reported as ““+++” (>50 = +++)”.

With “606 (ALWETEVYI; listed as Homo sapiens) [compound 606]”, the “Peptide exchange” value is ““+++” (>50 = +++)”.

Turning to “607 (RLYSGISGLEL; listed as Homo sapiens) [compound 607]”, the “Peptide exchange” value was ““+++” (>50 = +++)”.

Take “608 (SLLSVSHAL; listed as Homo sapiens) [compound 608]”: the “Peptide exchange” value is on record as ““+++” (>50 = +++)”.

Regarding “609 (ALWKQLLEL; listed as Homo sapiens) [compound 609]”, the “Peptide exchange” value is recorded as ““+++” (>50 = +++)”.

With “610 (LLAPTPYIIGV; listed as Homo sapiens) [compound 610]”, the “Peptide exchange” value is ““+++” (>50 = +++)”.

For the substance “611 (YLLDDGTLVV; listed as Homo sapiens) [compound 611]”, the “Peptide exchange” value was ““++++” (>75% = ++++)”.

Take “612 (YLYNEGLSV; listed as Homo sapiens) [compound 612]”: the “Peptide exchange” value is listed as ““+++” (>50 = +++)”.

Regarding “613 (RLLPPGAVVAV; listed as Homo sapiens) [compound 613]”, the “Peptide exchange” value was ““+++” (>50 = +++)”.

As for “614 (LLLPDQPPYHL; listed as Homo sapiens) [compound 614]”, the “Peptide exchange” value is reported as ““+++” (>50 = +++)”.

Take “615 (VLPPDTDPA; listed as Homo sapiens) [compound 615]”: the “Peptide exchange” value is listed as ““++” (>20% = ++)”.

Consider “616 (VLIDEVESL; listed as Homo sapiens) [compound 616]”, for which the “Peptide exchange” value is on record as ““+++” (>50 = +++)”.

Consider “617 (ALMYESEKVGV; listed as Homo sapiens) [compound 617]”, for which the “Peptide exchange” value is ““+++” (>50 = +++)”.

As for “618 (VLFDSESIGIYV; listed as Homo sapiens) [compound 618]”, the “Peptide exchange” value is given as ““+++” (>50 = +++)”.

As to “619 (ALQDRVPLA; listed as Homo sapiens) [compound 619]”, the “Peptide exchange” value was ““+++” (>50 = +++)”.

In the case of “620 (KLLNKIYEA; listed as Homo sapiens) [compound 620]”, the “Peptide exchange” value is ““++++” (>75% = ++++)”.

For the substance “621 (VLMDRLPSLL; listed as Homo sapiens) [compound 621]”, the “Peptide exchange” value is given as ““++++” (>75% = ++++)”.

“622 (RLLGEEVVRVLQA; listed as Homo sapiens) [compound 622]”: the “Peptide exchange” value is recorded as ““+++” (>50 = +++)”.

“623 (YLVEDIQHI; listed as Homo sapiens) [compound 623]”: the “Peptide exchange” value is ““+++” (>50 = +++)”.

In the case of “635 (SLDSTLHAV; listed as Homo sapiens) [compound 635]”, the “Peptide exchange” value is reported as ““+++” (>50 = +++)”.
